In the DeepSol protein solubility set:

Assay: soluble on expression in E. coli; label from the status in PepcDB or PDB records

MGSDKIHHHHHHMLDLLNLPGIKPVDMRHESKGLVIVAEPETVEVPLCGGCNTLMHKHGTRKNKFMDTPLYMEPVRLEVQRPRFRCESCGKMSMPELSFLDDKRRATKRLVDVIRQQCLGTTFHALAEQTGVAVNTVKNIAHDLINELSQTVRYETPVIMGIDEVNLAGGYRCVITNLATNNVFDMLEHRTQEHLKPFFKALPDADKVEWVCTDMWRPFKRSFAQYLPNAKLVIDKFHVVKMASEALEVERKNYQAQLSKEDRIYVKKSIRWLTLKRPGNLTPAEQKALEVVKQAIPELAVAYDFKEAFFCIYDELDKQNAQNAFEAWENSLPDQGLVAFKKLAKTVHNHYDDIFAYWDAPFSITNGYTEGLNGLIKMSNRLGRGYGYPIIRAKTLYSKEARKVGSGIRAGHGKVEYGPHIPTLLKQAESGELD
soluble on expression in E. coli: not soluble

MSNVAENNDGVYDAPTGITAPPIDELLKHVSSKYALVIFAAKRARQINSYYQQADEGVFEFVGPLVTPEAQEKPLSIAMREIEAGLLDHEEG
soluble on expression in E. coli: not soluble

MLHFIDSSESEDDLDELPRHLPPVIRRLAPLRHATSQYNLRSTGSTSSDSSTASENDKCSDFSSLKSRRASCIELNKEDEFKVMAADKLLMAMENMKHATSSQAIRWRTTSTESLPGIIKSNRRHSKGPLELIQGLMAKKAAVGRPAKFKNLGVVGPPTLISSTVSLHEISGFVRRDRFWGAETESLFSQFEV
soluble on expression in E. coli: not soluble

MSSKANHAKTVICGIINVTPDSFSDGGQFFALEQALQQARKLIAEGASMLDIGGESTRPGSSYVEIEEEIQRVVPVIKAIRKESDVLISIDTWKSQVAEAALAAGADLVNDITGLMGDEKMPHVVAEARAQVVIMFNPVMARPQHPSSLIFPHFGFGQAFTEEELADFETLPIEELMEAFFERALARAAEAGIAPENILLDPGIGFGLTKKENLLLLRDLDKLHQKGYPIFLGVSRKRFVINILEENGFEVNPETELGFRNRDTASAHVTSIAARQGVEVVRVHDVASHRMAVEIASAIRLADEAENLDLKQYK
soluble on expression in E. coli: soluble

MTESFAELFEASQANLAKLKPGSIVTGTVVEVRGDVVVINAGLKSEGIVPIEQFRNDAGEIDVGVGDQVKVALDSIENGFGETVLSREKAKRAMVWDELEEALEKNETITGRISGKVKGGFTVDIKDVRAFLPGSLVDVRPVRDPAYLEGKELEFKLIKLDRKRNNVVVSRRAVVESEHSEEREQLMDKLQEGAILKGVVKNLTDYGAFVDLGGIDGLLHITDMAWKRVRHPSEVVNVGDELDVRVLKFDRERNRVSLGLKQLGEDPWDNIARRYPANSRVFGKVSNVTDYGAFVEIEPGVEGLVHVSEMDWTNKNVNPSKVVQVGDEVEVMVLDVDEERRRISLGMKQVAANPWETFAATHKKNDKVSGQIKSITDFGIFIGLDGGIDGLVHLSDISWNTTGEDVVRNYKKGDTLEAVVLAVDPERERISLGVKQLEQDPFGQYMASNPKGSKVEGVVREVDAKGATIDLADGIEGYVAARDIANERVDDATQHLKVGDKIEAKFVGMDRKGRTLQLSIKAKDDAEMRETLEDYQSASASGGMTQLGALLRAQLNNNKSELEHHHHHH
soluble on expression in E. coli: not soluble

METEEWFFKGISRKDAERQLLAPGNMLGSFMIRDSETTKGSYSLSVRDYDPRQGDTVKHYKIRTLDNGGFYISPRSTFSTLQELVDHYKKGNDGLCQKLSVPCMSSK
soluble on expression in E. coli: soluble

MSSIDPATFAAQFAQIEIQPFKQRYQLQTNTYQSQLSALGKVESAMREFRTALNEMNSSTNSIIKNSTSISQEGYFTANADAKALSGSYQIFVEQVATSHQ
soluble on expression in E. coli: not soluble

MGSDKIHHHHHHMLYQLHEFNRSLLNPLMHWAEASSRLFTDPASPLAYTPYAQRIAAGYELLYRLGKQYEKPNFNIESVLVNGKTVAIVEEETEKKSFCTLIHFRKKLSAKEFAALKQPVVLLVAPLSGHHSTLLRDTVRSLLQDHDVYITDWTDARMVPLAEGPFHLHDYVYYIQDFIRRLGPDLHVISVCQPTVPVLAAISLMASERDPRLPKTMTMMGGPIDARKSPTQVNDLAVEKPHAWFENQVIYSVPPSYPGFGRKVYPGFLQHAGFIAMNPGRHAQSHWDFYMHLREGDNESAEEHRKFYDEYNAVLDMPAEYYLETIKTVFQEHRLPLGTWEIEGKLVRPQDIKSVALFTIEGEKDDISGAGQTHAAQDLCSALPQSDKQQFTAPQCGHYGIFSGRKWREIIAPKIGEFITRYS
soluble on expression in E. coli: not soluble

ATGTCGTTGGCAAAAGCGTCCTTGTGGACGGCGGCCAGTACACTGGTCAAGATTGGTGCCGGGTTACTGGTCGGTAAGTTGCTGGCGGTGTCATTTGGTCCGGCGGGGCTTGGGCTGGCGGCAAATTTCCGCCAGTTGATTACCGTGCTCGGCGTGCTTGCCGGGGCTGGCATCTTTAACGGTGTAACCAAATACGTTGCCCAGTACCATGATAATCCGCAACAGCTGCGCCGCGTGGTCGGCACTTCATCAGCGATGGTACTTGGTTTCTCTACGCTGATGGCGCTGGTTTTTGTGCTGGCAGCTGCGCCAATCAGCCAGGGATTGTTTGGTAATACCGACTATCAGGGGCTGGTGCGTTTAGTGGCGCTGGTGCAAATGGGGATCGCCTGGGGCAACCTGTTACTGGCGCTGATGAAAGGCTTTCGSGATGCCGCAGGTAATGCGTTATCGCTGATTGTCGGCAGCTTGATTGGCGTTCTCGCGTACTACGTCAGTTACCGTTTGGGCGGTTATGAAGGGGCGTTGCTGGGTCTGGCGCTGATTCCCGCGCTGGTGGTAATTCCTGCCGCCATCATGTTGATCAAACGTGGTGTCATCCCGTTAAGCTATCTGAAACCCAGCTGGGATAACGGTCTGGCAGGGCAGTTGAGCAAATTTACGCTCATGGCGTTGATTACGTCGGTGACCTTGCCTGTTGCTTACATCATGATGCGTAAACTGCTGGCGGCGCAGTATAGCTGGGATGAGGTGGGGATCTGGCAAGGGGTGAGCAGTATTTCCGATGCCTACCTGCAATTTATTACGGCATCGTTCAGCGTATATTTGCTGCCCACGTTGTCGCGGCTAACGGAAAAGCGCGATATCACCCGGGAAGTGGTTAAATCGCTGAAATTCGTCTTACCGGCAGTGGCGGCGGCGAGTTTTACCGTCTGGCTGCTGCGTGATTTTGCTATCTGGCTGCTGTTGTCGAATAAATTTACCGCTATGCGCGATCTCTTTGCCTGGCAGTTAGTGGGTGATGTGTTAAAAGTGGGCGCTTATGTCTTTGGTTATCTGGTGATCGCCAAAGCGTCACTGCGGTTTTATATTCTGGCGGAAGTCAGCCAGTTCACTTTATTGATGGTATTTGCCCACTGGCTAATCCCTGCGCATGGTGCACTGGGCGCGGCGCAGGCATATATGGCAACTTATATCGTCTATTTTTCTCTTTGTTGTGGCGTGTTTTTACTCTGGCGTAGGCGGGCATGA
soluble on expression in E. coli: not soluble

SYVQEHRLWGLMDKPHSAPCLMSLSLSFLICNKGRNAIRVQQSTDERMDAMLLWQCPTQGTRKNHESNSSLHHVPNWIFHSTIIPPNKGSKRCLRKVDWLLPRAGGVGGKRGVTADGDRVSF
soluble on expression in E. coli: soluble

MTIDRVCTIGPASNNKETLAKLINNGMKIVRLNLSHGTHESHKDIIRLVKSLDDSIKILGDVQGPKIRLGEIKGEQITLQAGDSFMLRTQPVTGSSTEASVDYEGIANDVKVGSRILMNDGEVELIVEKVSTDKIETKVKTGGNISSHKGVNLPGAIVSLPAITEKDKKDIQFLLEEDVDFIACSFVRKPSHIKEIRDFIQQYKETSPNLIAKIETMEAIENFQDICKEADGIMIARGDLGVELPYQFIPLLQKMMIQECNRTNTYVITATQMLQSMVDHSIPTRAEVTDVFQAVLDGTNAVMLSAESASGEHPVESVSTLRLVSEFAEHVKKDGPFVMKDVLELLHKSLDE
soluble on expression in E. coli: soluble

MWELAEVQEPEAWNRLVSGFAITSPLQSWGWGEVKRTTGWEPRRFLLLGGEGPVAAAQVLLKAAPGGLRLAYAPRGPALHRLEDLPEVARALGRALRATHLVLEPEAGLPAHLPAPRFPGLLLEEPIQPAHSLWLDLTQGEEALLKGMKEMHRRNARLALKRVALSVEGEEAFAEFYRLFTETNRRARLLQHDEAYYRAVLKEMNQPLGEAFLALARKDGEALAAGLFVAFAGKVAYLYGGSTRKHPEAKAPMGMHLAAIRHGMARGYRVYDLWGIPKNPRGSHAEGIHRFKEGFGGQRVQFPAYVLPLSPLYRPLGLLLRLRKTWVNLRVRGNPRDVLG
soluble on expression in E. coli: soluble

MTDQPDVQRVQTASRDNSTVIDLREYKTNKDPLPVTFHRRELDAILRIYGRMVGEGEWRDYAIDHLKEKAVFSVFKRSGEMPLYRIEKNPKLATKQGAYCVVNVDGRILKRGHELPQVLKVFDKVLKLIE
soluble on expression in E. coli: not soluble

MGSDKIHHHHHHLPAHLTPIQMEPEKALLRVHCQSDIDQLLSESVVFTLLSERNLGPKMLGVFPGGRFEQFIPSRALQCLEISKPGLSKLIAPIVARVHTLDAPIPKEPQTLQTARQWLERFKKTPAGERPIEMYLTQAKVPKSDYPSTITVAQLERELNFVEFFLQHSHSPVVFSHNDLQEGNFLLIDGYKLADDGTVLTPDGKPTNDDPLSLIDFEYCSYNYRGFDLGNHFCEYGYDYNEAEAPYYKIHQHYFEVEKERKVFCEAYLDEVYKMRACGDNPHFPSDLVTGDREKDLNKIIEESILFMPVSNIFWVCWSLINAEESSIAFDYGAYGRDRLALYFHQKKNLEKYLSNL
soluble on expression in E. coli: not soluble

MALVNSILKANEYSFKVPEFDGKNVSSILGFDSNQLPANAPIEDRRSAATCLQTRGMLLGVFDGHAGCACSQAVSERLFYYIAVSLLPHETLLEIENAVESGRALLPILQWHKHPNDYFSKEASKLYFNSLRTYWQELIDLNTGESTDIDVKEALINAFKRLDNDISLEAQVGDPNSFLNYLVLRVAFSGATACVAHVDGVDLHVANTGDSRAMLGVQEEDGSWSAVTLSNDHNAQNERELERLKLEHPKSEAKSVVKQDRLLGLLMPFRAFGDVKFKWSIDLQKRVIESGPDQLNDNEYTKFIPPNYHTPPYLTAEPEVTYHRLRPQDKFLVLATDGLWETMHRQDVVRIVGEYLTGMHHQQPIAVGGYKVTLGQMHGLLTERRTKMSSVFEDQNAATHLIRHAVGNNEFGTVDHERLSKMLSLPEELARMYRDDITIIVVQFNSEGHHHHHH
soluble on expression in E. coli: soluble

MKIYIEGYGCTLNTADTQIIKNSVNEFEDFELTDNVDDSDIIVINTCIVRQETEHRMISRIEYFKSLDKKVVVAGCMAKALSKKIENLADVLIMPREAQHSGNILKDKLLKDFSEKNNESTQNLNFEDKLNEKIKKVSSQGLITALPICEGCLGSCTYCIVKRARGNLASYDRDLIVKKAEELVKSGTKCLLVTAQDTACYGLDNNDSLPNLINDISEIPEKFAMRIGMMHAKFAEPILDELIESFKSEKVVKFLHLPIQSGDDQVLKDMNRNYTVDEYISVLNEFKSKIKNLNFTTDVIVGFPTETEEAFENTLEIVKKIKPDFTHAAKYSQRKYTKAAILKQVDTKIRKERSEILNELRRELSYENNKRHIGETFEILVTKDNMGVTDNCKNVIFEEPAKIGEFKRVKITGAKTFGLSGKLINLEHHHHHH
soluble on expression in E. coli: soluble

MGSDKIHHHHHHMTDVAKFGISRLDELLGGGLDRYTENLIIGRSGIGKTILAAHWAAEGARNDETVVYLSTTMNKKNCKAYLGRFPFMEDVYDKIKWRFIRVDPKFVLPLTREKIVEGLRATFGMDGKDIDRVVFDSCTDLELALADPVLYRRALTYMSDLSYDYEITSLWIEEAPMQGDWSSTKNIVDSVIFLNLLRTQEGYQRAMRILKKYRTRVPLEWIPYEITDEGVVIKDGYIVKRSYDYEYKRG
soluble on expression in E. coli: not soluble

MPEVKTEKPHLLDMGKPQLRMVDLNLLTVFDAVMQEQNITRAAHTLGMSQPAVSNAVARLKVMFNDELFVRYGRGIQPTARAFQLFGSVRQALQLVQNELPGSGFEPTSSERVFNLCVCSPLDNILTSQIYNRVEKIAPNIHVVFKASLNQNTEHQLRYQETEFVISYEEFRRPEFTSVPLFKDEMVLVASRKHPRISGPLLEGDVYNEQHAVVSLDRYASFSQPWYDTPDKQSSVAYQGMALISVLNVVSQTHLVAIAPRWLAEEFAESLDLQILPLPLKLNSRTCYLSWHEAAGRDKGHQWMEDLLVSVCKR
soluble on expression in E. coli: not soluble
